# From US20120165249A1
# Tests used:
# [1] = target: HIV-1 CA protein (capsid) (HIV-1); assay: cell-based or functional assay
# [2] = target: HIV-1 gag polyprotein (HIV-1); assay: cell-based or functional assay
substance,measurement,setting,value
NYAD-1 (peptide),inhibition of mature-like particle formation from purified CA protein in vitro (EM) (fold molar equivalent),[1],1
same,release of immature-like particles from gag-transfected 293T cells (p24 ELISA) (fold reduction at 50 µM),[2],72
same,release of mature-like particles from gag-pol transfected 293T cells (p24 ELISA) (fold reduction at 50 µM),[2],67
